# Data as given in the supplement of paper PMC10567573.
# ± gives the standard deviation.
# Experiment: protein stability index of a GFP-peptide fusion (GPS, HEK-293T) (PSI 1-6); higher = more stable
# Settings: c terminus: a fixed tail appended
# 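Note: 24-mer peptide tiles fused after GFP, lentivirally expressed, FACS-sorted into six equal bins by GFP/DsRed ratio, decoded by Illumina sequencing, PSI is the read-weighted mean bin number.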
Sequence,protein stability index (treatment: DMSO),"protein stability index (treatment: MLN4924 1 uM, 8 h)"
YLTSQLPPLREIILGPSSAYTQTQ [NFE2L1],2.38 ± 0.3,2.52 ± 0.1
YMHVGSCQHLSSSAEELRKARSNS [KCNA3],3.95 ± 0.11,4.37 ± 0.22
YMVIEEGGMNHSAFPQTPFKTGNS [KCNA3],3.27 ± 0.17,3.22 ± 0.61
YNPSFEDHQTLLSAAHEVELQRQK [NOP53],4.19 ± 0.56,4.35 ± 0.44
YPTDNTKVMIFKSSYSLSDMVSNI [MIA2],2.51 ± 0.62,2.436 ± 0.003
YQIYDVSGESNSAVSTEDLKECLK [LARP4],4.2 ± 0.18,4.2 ± 0.19
YQLCRVQECPPDGRSFREEQCVSF [ADAMTSL2],2.92 ± 0.65,2.97 ± 0.32
YREHKSLTGTARYMSINTHLGKEQ [CSNK1G1],3.47 ± 0.34,3.27 ± 0.49
